Assay results published in patent US20240228543.

B1: yeast SAGA DUB module (Ubp8/Sgf11/Sgf73 1-105/Sus1), construct lacking the Avi tag, 6xHis tag cleaved (protein)
chain 1: MSICPHIQQVFQNEKSKDGVLKTCNAARYILNHSVPKEKFLNTMKCGTCHEINSGATFMCLQCGFCGCWNHSHFLSHSKQIGHIFGINSNNGLLFCFKCEDYIGNIDLINDAILAKYWDDVCTKTMVPSMERRDGLSGLINMGSTCFMSSILQCLIHNPYFIRHSMSQIHSNNCKVRSPDKCFSCALDKIVHELYGALNTKQASSSSTSTNRQTGFIYLLTCAWKINQNLAGYSQQDAHEFWQFIINQIHQSYVLDLPNAKEVSRANNKQCECIVHTVFEGSLESSIVCPGCQNNSKTTIDPFLDLSLDIKDKKKLYECLDSFHKKEQLKDFNYHCGECNSTQDAIKQLGIHKLPSVLVLQLKRFEHLLNGSNRKLDDFIEFPTYLNMKNYCSTKEKDKHSENGKVPDIIYELIGIVSHKGTVNEGHYIAFCKISGGQWFKFNDSMVSSISQEEVLKEQAYLLFYTIRQVN
chain 2: MTEETITIDSISNGILNNLLTTLIQDIVARETTQQQLLKTRYPDLRSYYFDPNGSLDINGLQKQQESSQYIHCENCGRDVSANRLAAHLQRCLSRGARR
chain 3: MRSGDAEIKGIKPKVIEEYSLSQGSGPSNDSWKSLMSSAKDTPLQYDHMNRESLKKYFNPNAQLIEDPLDKPIQYRVCEKCGKPLALTAIVDHLENHCAGASGKS
chain 4: MTMDTAQLKSQIQQYLVESGNYELISNELKARLLQEGWVDKVKDLTKSEMNINESTNFTQILSTVEPKALEMVSDSTRETVLKQIREFLEEIVDTQ
For B1, the Ub-AMC cleavage (yD1 cyclic peptide) was “yD1 did not inhibit activity of the yeast DUB module” and the “Ub-AMC cleavage, 50 nM yeast DUB module with 2.5 µM yD1” value (yD1 cyclic peptide) was “Rather than inhibition, yD1 produced a slight increase in cleavage rates”.

B2: USP27x alone (DUBprofiler panel) (protein)
chain: MCKDYVYDKDIEQIAKEEQGEALKLQASTSTEVSHQQCSVPGLGEKFPTWETTKPELELLGHNPRRRRITSSFTIGLRGLINLGNTCFMNCIVQALTHTPILRDFFLSDRHRCEMPSPELCLVCEMSSLFRELYSGNPSPHVPYKLLHLVWIHARHLAGYRQQDAHEFLIAALDVLHRHCKGDDVGKAANNPNHCNCIIDQIFTGGLQSDVTCQACHGVSTTIDPCWDISLDLPGSCTSFWPMSPGRESSVNGESHIPGITTLTDCLRRFTRPEHLGSSAKIKCGSCQSYQESTKQLTMNKLPVVACFHFKRFEHSAKQRRKITTYISFPLELDMTPFMASSKESRMNGQLQLPTNSGNNENKYSLFAVVNHQGTLESGHYTSFIRHHKDQWFKCDDAVITKASIKDVLDSEGYLLFYHKQVLEHESEKVKEMNTQAY
In the case of B2, the “ubiquitin-rhodamine(110)-glycine cleavage with 1 µM hD1 (DUBprofiler)” value (hD1 cyclic peptide) is reported as “USP27x, whose activity was reduced by ˜50%”.

B3: USP30 (protein)
chain: TERKKRRKGLVPGLVNLGNTCFMNSLLQGLSACPAFIRWLEEFTSQYSRDQKEPPSHQYLSLTLLHLLKALSCQEVTDDEVLDASCLLDVLRMYRWQISSFEEQDAHELFHVITSSLEDERDRQPRVTHLFDVHSLEQQSEITPKQITCRTRGSPHPTSNHWKSQHPFHGRLTSNMVCKHCEHQSPVRFDTFDSLSLSIPAATWGHPLTLDHCLHHFISSESVRDVVCDNCTKIEAKGTLNGEKVEHQRTTFVKQLKLGKLPQCLCIHLQRLSWSSHGTPLKRHEHVQFNEFLMMDIYKYHLLGHKPSQHNPKLNKNPGPTLELQDGPGAPTPVLNQPGAPKTQIFMNGACSPSLLPTLSAPMPFPLPVVPDYSSSTYLFRLMAVVVHHGDMHSGHFVTYRRSPPSARNPLSTSNQWLWVSDDTVRKASLQEVLSSSAYLLFYERVLSRMQHQSQECKSEE
In the case of B3, the “ubiquitin-AMC cleavage with 1 µM hD1” value (hD1 cyclic peptide) is reported as “only a very modest (˜15%) effect on USP30”.

B4: human SAGA deubiquitinating module (USP22/ATXN7L3/ENY2/ATXN7), construct lacking the Avi tag, 6xHis tag cleaved (protein)
chain 1: MVSRPEPEGEAMDAELAVAPPGCSHLGSFKVDNWKQNLRAIYQCFVWSGTAEARKRKAKSCICHVCGVHLNRLHSCLYCVFFGCFTKKHIHEHAKAKRHNLAIDLMYGGIYCFLCQDYIYDKDMEIIAKEEQRKAWKMQGVGEKFSTWEPTKRELELLKHNPKRRKITSNCTIGLRGLINLGNTCFMNCIVQALTHTPLLRDFFLSDRHRCEMQSPSSCLVCEMSSLFQEFYSGHRSPHIPYKLLHLVWTHARHLAGYEQQDAHEFLIAALDVLHRHCKGDDNGKKANNPNHCNCIIDQIFTGGLQSDVTCQVCHGVSTTIDPFWDISLDLPGSSTPFWPLSPGSEGNVVNGESHVSGTTTLTDCLRRFTRPEHLGSSAKIKCSGCHSYQESTKQLTMKKLPIVACFHLKRFEHSAKLRRKITTYVSFPLELDMTPFMASSKESRMNGQYQQPTDSLNNDNKYSLFAVVNHQGTLESGHYTSFIRQHKDQWFKCDDAIITKASIKDVLDSEGYLLFYHKQFLEYE
chain 2: ERAADDVRGEPRRAAAAAGGAAAAAARQQQQQQQQQQPPPPQPQRQQHPPPPPRRTRPEDGGPGAASTSAAAMATVGERRPLPSPEVMLGQSWNLWVEASKLPGKDGTELDESFKEFGKNREVMGLCREDMPIFGFCPAHDDFYLVVCN
chain 3: MKMEEMSLSGLDNSKLEAIAQEIYADLVEDSCLGFCFEVHRAVKCGYFFLDDTDPDSMKDFEIVDQPGLDIFGQVFNQWKSKECVCPNCSRSIAASRFAPHLEKCLGMGRNSSRIANRRIANSNNMNKSESDQEDNDDINDNDWSYGSEKKAKKRKSDKNPNSPRRSKSLKHKNGELSNSDPFKYNNSTGISYETLGPEELRSLLTTQCGVISEHTKKMCTRSLRCPQHTDEQRRTVRIYFLGPSAVLPEVESSLDNDSFDMTDSQALISRLQWDGSSDLSPSDSGSSKTSENQGWGLGTNSSESRKTKKKKSHLSLVGTASGLGSNKKKKPKPPAPPTPSIYDDIN
chain 4: MVVSKMNKDAQMRAAINQKLIETGERERLKELLRAKLIECGWKDQLKAHCKEVIKEKGLEHVTVDDLVAEITPKGRALVPDSVKKELLQRIRTFLAQHASL
With B4 the “Ub-AMC cleavage with 1 µM hD1” value (hD1 cyclic peptide) was “the USP22/DUB module has no detectable activity under these conditions”, the “cleavage of nucleosomal H2B-Ub (200 nM hDUBm, 1 µM peptide)” value (from here on “cleavage of nucleosomal H2B-Ub”) (hD1 cyclic peptide) was “With the exception of hD4, all of the cyclic peptide leads were potent inhibitors of nucleosomal H2B-Ub cleavage by the human DUB module” and the “cleavage of nucleosomal H2B-Ub” value (hD2 cyclic peptide) was “With the exception of hD4, all of the cyclic peptide leads were potent inhibitors of nucleosomal H2B-Ub cleavage by the human DUB module”. The “cleavage of nucleosomal H2B-Ub” value (hD3 cyclic peptide) was “With the exception of hD4, all of the cyclic peptide leads were potent inhibitors of nucleosomal H2B-Ub cleavage by the human DUB module”, the “cleavage of nucleosomal H2B-Ub” value (hD4 cyclic peptide) was “also showed very weak inhibition of hDUBm on nucleosomal H2B-Ub” and the “cleavage of nucleosomal H2B-Ub” value (hD5 cyclic peptide) was “With the exception of hD4, all of the cyclic peptide leads were potent inhibitors of nucleosomal H2B-Ub cleavage by the human DUB module”. For the same protein, the “cleavage of nucleosomal H2B-Ub” value (hL1 cyclic peptide) was “With the exception of hD4, all of the cyclic peptide leads were potent inhibitors of nucleosomal H2B-Ub cleavage by the human DUB module” and the “Ub-AMC cleavage over a range of yD1 concentrations” value (yD1 cyclic peptide) was “yD1 also did not inhibit the human DUBm”.

B5: USP7 catalytic domain (protein)
chain: KKHTGYVGLKNQGATCYMNSLLQTLFFTNQLRKAVYMMPTEGDDSSKSVPLALQRVFYELQHSDKPVGTKKLTKSFGWETLDSFMQHDVQELCRVLLDNVENKMKGTCVEGTIPKLFRGKMVSYIQCKEVDYRSDRREDYYDIQLSIKGKKNIFESFVDYVAVEQLDGDNKYDAGEHGLQEAEKGVKFLTLPPVLHLQLMRFMYDPQTDQNIKINDRFEFPEQLPLDEFLQKTDPKDPANYILHAVLVHSGDNHGGHYVVYLNPKGDGKWCKFDDDVVSRCTKEEAIEHNYGGHDDDLSVRHCTNAYMLVYIRESKLSEVLQAVTDHDIPQQLVERLQEEKRIEAQKRKERQE
For B5, the “ubiquitin-AMC cleavage with 1 µM hD1” value (hD1 cyclic peptide) was “the hD1 peptide had no effect on USP7CD or CYLD activity”.

B6: CYLD (protein)
chain: MSSGLWSQEKVTSPYWEERIFYLLLQECSVTDKQTQKLLKVPKGSIGQYIQDRSVGHSRIPSAKGKKNQIGLKILEQPHAVLFVDEKDVVEINEKFTELLLAITNCEERFSLFKNRNRLSKGLQIDVGCPVKVQLRSGEEKFPGVVRFRGPLLAERTVSGIFFGVELLEEGRGQGFTDGVYQGKQLFQCDEDCGVFVALDKLELIEDDDTALESDYAGPGDTMQVELPPLEINSRVSLKVGETIESGTVIFCDVLPGKESLGYFVGVDMDNPIGNWDGRFDGVQLCSFACVESTILLHINDIIPALSESVTQERRPPKLAFMSRGVGDKGSSSHNKPKATGSTSDPGNRNRSELFYTLNGSSVDSQPQSKSKNTWYIDEVAEDPAKSLTEISTDFDRSSPPLQPPPVNSLTTENRFHSLPFSLTKMPNTNGSIGHSPLSLSAQSVMEELNTAPVQESPPLAMPPGNSHGLEVGSLAEVKENPPFYGVIRWIGQPPGLNEVLAGLELEDECAGCTDGTFRGTRYFTCALKKALFVKLKSCRPDSRFASLQPVSNQIERCNSLAFGGYLSEVVEENTPPKMEKEGLEIMIGKKKGIQGHYNSCYLDSTLFCLFAFSSVLDTVLLRPKEKNDVEYYSETQELLRTEIVNPLRIYGYVCATKIMKLRKILEKVEAASGFTSEEKDPEEFLNILFHHILRVEPLLKIRSAGQKVQDCYFYQIFMEKNEKVGVPTIQQLLEWSFINSNLKFAEAPSCLIIQMPRFGKDFKLFKKIFPSLELNITDLLEDTPRQCRICGGLAMYECRECYDDPDISAGKIKQFCKTCNTQVHLHPKRLNHKYNPVSLPKDLPDWDWRHGCIPCQNMELFAVLCIETSHYVAFVKYGKDDSAWLFFDSMADRDGGQNGFNIPQVTPCPEVGEYLKMSLEDLHSLDSRRIQGCARRLLCDAYMCMYQSPTMSLYK
With B6 the “ubiquitin-AMC cleavage with 1 µM hD1” value (hD1 cyclic peptide) was “the hD1 peptide had no effect on USP7CD or CYLD activity”.
